Test results as given in the supplement of paper PMC12636428.

Tested on: Saccharomyces cerevisiae
Test: transcriptional activation domain activity (GFP:mCherry ratio, weighted mean of sorted bins, harmonized to initial dataset scale) (arbitrary fluorescence ratio units); higher = stronger transcriptional activation
Conditions: beta-estradiol 1 µM; induction time 4 h
Protocol: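 53-aa protein tiles (fungal proteins plus yeast TF control tiles) fused C-terminally to a DBD-estrogen-binding domain-mCherry synthetic TF, integrated in S. cerevisiae (URA3 locus) with a GFP reporter. Cells were induced with 1 uM beta-estradiol for 4 h at 30 C, FACS-sorted into 8 bins by GFP:mCherry ratio and barcodes sequenced. Activity is the read-weighted mean bin fluorescence (GFP:mCherry), averaged over barcodes (median 12); tiles under 50 reads were discarded. New active-learning values were harmonized by linear fit onto the scale of the initial (Hummel et al.) dataset. The assay saturates at low and high signal.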

Sequence	transcriptional activation domain activity
DFKHPMEPLACNWEDCDFLGDDTCSIVNHINCQHGINFDIQFANPDSFLPGSI	141000
DFLLSLHGIRTVYLFMFVINSFLHPLRTLIHLWCLIFISVYQHRLFFFFFFFF	61200
DFTLEQDPDVLDTWFSSGLWPFSILGWPDKTPDLKTFYPATILETGWDILFFW	54800
DFWDYLIVSLVPSLCVFFVRYFMFMVLFIVVGYFIPLLMCYMSYSIIRYPLFH	43400
DFWFFLFVYYGFYNLVGLLWITKVFNMYGLNWWPVRLGFPATFTLFNCLSLAC	65500
DGAGAKDDEEDAGRMRTRGNGKRKGKGRAQDEAEAEAERVRAAEAFARRGAAK	43300
DGCIFFALITFALMLRIATAFCMRGPIHAIFLPWSIVCYYYAGSHLLLNLRWY	46300
DGDEEDAKDGRKKKKKKRLPKSPIGNPGEKLGFVILGAQHAREWVATSAALYL	35700
DGDLDEAVYKGFEYKHLGNLAYIGNAAVFDLNGWSIGGGLIFVYLWRSVYFAQ	67800
DGEATATPAKPKTPRKRKVKAADSAEEGTGDAEGSPKKKAGGRKKKADVAVKE	38600
DGEGEDAEDGSKKDAEVAYHSGLGLKFRYPGDPKKLREASKLKLWTAYLKDHG	55100
DGGDGDDGSGGEVERAGKSGRAKREGKRGAEEEEEERGDGRAARKTAEKRKKR	< 6570
DGGEAGEGGTEGAGGGAGGEEGQQGKRPEEGKRKERHRPAEEHGKEKNHGRGE	30700
DGGGRDSEKRGKGKLITRKSHRKSRLGCGNCKQRRIKCDEKRPHCTNCQKRDI	37600
DGHFGSDFGWVWPFSFSLFCFLFCILHFLVYCTHNVLLWKQLSLNFLFCIFHG	54100
DGKTFDQLLRLKRLLVMHKGNLQSMWCVALMLELWHTKWTELSRLIQQHWGTG	74200
DGKTRRSKVRPRRGAPTGAAGSPAAAGSSKSDTEANSDKGAAGKKRKPRPARK	37100
DGKWCLRFVPRGQRWLLAITRDFTDTAMMSVAARMVWHPIAYTVCLLPVTIAR	55000
DGNAGQTAGNAGNGRQNGNGRQGGNGGAGQQGKPRPNGQKGQQGQRGQGAGAG	20500
DGNNSKPLSPGWTDQTAYNAFGITTGMFNTTTMDDVYNYLFDDEDTPPNPKKE	61500
DGSIMEINGIPLSMLGETGSVKFQSLFANTSNSNDYNNNRTLLDASNDISIPS	61900
DGSNGIAQLFGVVFFLFFFLHIYYICWALGLVGFVSGRRGNIVWFVLLCLFLS	63800
DGVKGWAVGVVVAGPFMAGLIKLIRWAGDSFVAYVVVFLFVFQLVAMTLYPTL	19000
DGVTNTPVELGVAKEGGNLEVVNSRTALVVSKHWILLIGLLGRYGMRKDKGVL	49400

Sequence	transcriptional activation domain activity
DGWGDGGLRAGALEEVQRRAEEMRGRLRLDEEARLYFSRSGNRLVRVVIILVG	7180
DGYRNDNRGRNRRGNGRSRSPRGGKDSRNGTPPLTEDERDKRTIFVQQLAARL	57100
DHFDAPEPWSMFWYDPALDGTWWDQLPLDHFFPSELGAWASARSSWTDLTGSY	155000
DHLLKSLYMLIHTTLKCIKNLEFLGFYLFNSGFSSVFDECVFPYIRTLRCHQP	65000
DHSDKIDKKRKDEDDSKRSKSDRKSKRDEERFSDSDKGARLDKDHSKSSRSKS	43500
DIDEQRLQLYGVQIQIFLFVVMLYIFGCNLVIASKMVVLQPRNMVSWCCLIPS	46800
DIDMEDVDGDAAPSAKKAKASKKRKKDAESDGEQEKACLSFRTILLHSLIFIQ	41900
DIEQQVRFRLTQIYFLILKLDAFFHFVLCVFYAVVMTQEKYYTLWGVIDRKFI	79400
DIETLLVYDYYPKPLLDIDLTIRGRHIYLPIEKTWLRYVPKPPWYLLVLLFAG	60500
DIFGQMKDFTERCHMYLDGNITLPISLHQKLVEIFSHLLCLIGMITRDMKRGW	32500
DIIPDHYKHKPISLYDPRKAPLLNQYRLIVPRSRNIIEVCQFIILLLLYCLSM	78100
DINSFTNQQQQAQDNPSFLPLDIEQSSYDLSEDAMSYPIISTQSNRDCTQYDN	68700
DIPGLAPTYLDNQAFLMADTVDIPGDYNLFFDNFDISNFFLPATVYDSELPVS	137000
DISKLAIETFYFFFLFLLSFLFSFLFFSFLFLIFFNFLYSSFFLSFFLSFFLF	33900
DKATMRRAFFERIVTERINIMGKMSISLIHSLIVDCMFLSTARSFLWLLWAYV	56300
DKDEDAGAVEGEGGVVNANGKKTSGDEAGGERKKKQKQKEREKGGEDGAGKKG	47700
DKEAKADVEEKPKTPRGRKRKTAEEVNGEEAQTEKEPPVKKTKPASKAKPASK	42600
DKEKMEDGLIRVRLYFFTKLAGKPFYPTLLWSCLHSLTLKRLVALLRKSQLSA	68900
DKKEAKPVNGESSKDTKPSGKEKEKELKDNAKPKEAKKGEGNKGGLAKAAAAP	25800
DKKNVDINEFLLDESVSNLFTTRQIDLFKKNVNLYSPLFQNQKDAVSSTSLTP	81800
DKNYNNLTVYNFVYLFGGRVHLYKNLTFHVVVTYVCVISSIVFFLVFIAKWYW	52100
DKPIAAKKPSAQRKRKVKLESDADSSGDDQPIVKKPAAKKPRASKAKKEEPAS	23100
DKPKTKPAAAKAKPKSATTKAKPASKASAKPSSKAGAKKPASKKATAAAAAKK	12000
DKQLDYEFIDKSGIIPSDNQSHPRISNIHDNAIDMVTLKNGEEVAISWYDISH	59800

Sequence	transcriptional activation domain activity
DKRLENAQTLIPDGMKVRPMEDCITEAPTLIMARFNIVLLYLKTRVVLHRNYL	62400
DKSSGEEGSRKKRKRVSDNGEEDKELEKSKSKDRKKKGKRRDPAEDGAERPAT	41400
DLAPVQPVQKQARRRSGPACEGCKARKTKCDGKRPTCGSCVDKRHCVYADASV	21900
DLARSQKFILCSIKHWGSYLFLFFSCRSFNLFFNHSYFSFCLNISFFLCSVFL	77800
DLASPSDNDIDEARSREIAAKAVTGILVLLLKWLKLSHILKFEYLTQLLLDSN	64400
DLCFWLLDVCVLFSPGSCRLHQLSDKYFVEQLVLMNVFLIQVLLKFVFPLGRA	74800
DLDFRGIFMTDWYANYDYMVSDLIMPGFWRVPVLPKWYNWTGFFASWPLIGQF	68800
DLDILLAKLLEELEDSLQALKRLVVSAFLRFLTGVLYEEFMEAIRPNPHMDNE	58200
DLDNDIDFETAYQMLSSNFDDQMSAHIHENTFSATSPPLLTHELGIIPNVATV	95500
DLEELRHLCHALKATFTHVLSIPVCSYFYFPQTSFAMILHSIMIICRWVKLST	35100
DLFMTLGWISGFMAELIAVQGACSLGWHPGCTNFNWLMAWLFFLFLSWGAGFF	66400
DLFVSLMANSLTKLGFVPGATVDMKKLTIDIVELIFRWERRRMTGSPSIKPAD	45200
DLHLICNMVNGSTTFHSGESWTPVCLPRFNSKGFLHAYVCFVAKETCLVLISP	30300
DLIQTKQLQNALLTHPRRNTLTGLQFTMQNVLDLLKYILTMILYRPSQFRWAA	82500
DLLAHCKRELVHAIWTLLLDDVFLHAYKYGMVVRCADGVEQRIYPRIFTYSAD	41200
DLLDQMILGLLRYCEADILVPKLRLLGATDRARMELLDAYSCKVWLLLLMFVT	56500
DLLEDDGQPSSATQKSMKRANRKRQSQKNRIVHLLNRTRRALGVSRAALILLL	57500
DLLFNVAAFVFVGAWTPFNQFSDPALSLSVWRLIVIAILVLLLRRLPAIIALY	27800
DLLLEGYDTNRLLVVIPFTCKVLEQAAKSMVFKPPNPWLMAIVKLLAELYLYA	73900
DLLVLLRKCREVALRIIQKESCFNVLNLRRELVSNLLLSFWVVGQSLTTKVPM	33000
DLMMVVFGVLLSSLFFVFVFVWYCYLLLSCFLSFFLSLVVSWCWLGLHIHVYS	43500
DLPVRLVELPNLLVTDIQQNAYLLDSALRVKLDAKGRAFLDSILLRVLQWLWT	48200
DLQRHLLKDHVSQDFKHPMEPLACNWEDCDFLGDDTCSIVNHINCQHGINFDI	53200
